In US20080166698A1 (Genentech, published 2008):

Target: T1, recombinant human DAF (human, UniProt P08174 35-353, limits assumed)
T1 construct: also called decay accelerating factor; CD55
T1 sequence (looked up): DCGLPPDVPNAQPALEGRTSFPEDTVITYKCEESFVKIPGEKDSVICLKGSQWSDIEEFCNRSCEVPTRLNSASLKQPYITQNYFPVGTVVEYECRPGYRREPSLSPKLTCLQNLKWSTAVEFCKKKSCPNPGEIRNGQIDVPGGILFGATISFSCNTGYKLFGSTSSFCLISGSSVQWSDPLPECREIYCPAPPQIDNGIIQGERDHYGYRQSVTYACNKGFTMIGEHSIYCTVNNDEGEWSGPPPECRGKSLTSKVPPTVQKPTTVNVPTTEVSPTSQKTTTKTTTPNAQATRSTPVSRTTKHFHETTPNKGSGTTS
Assay: SPR (BIACORE 1000), recombinant human DAF on a CM-5 chip, LU30 scFv injected
Procedure: Affinity Measurements. Kinetic measurements were made by surface plasmon resonance using a BIACORE 1000™ Biosensor (Biacore, AB Uppsala, Sweden). CM-5 chips were functionalized with 350 response units recombinant human DAF in 10 mM sodium acetate (pH 4.6) or 8,000 response units bovine serum albumin as a negative control. The DAF-derivatized chip was saturated with LU30 scFv (25-100 nM) by injecting this fragment at 10 :l/min in PBS containing 0.5% (w/v) bovine serum albumin and 0.05% (v/v) TWEEN 20™. The resultant sensorgrams were analyzed using BIAEVALUATION™ software 3.0.

B1: LU30 scFv (scFv, V domains shown)
VH: QVKLQESGGGLVQPGGSLKLSCAASGFTFSGYGMSWIRQTPDKRLEWVATINSGGSYTYYSDSVKGRFTISRDNVKNTLYLQMSSLKSEDTAMYYCARRNGTLYYYLMDYWGRGTLVTVSS
VL: QSVLTQPPSASGSPGQSVTISCTGTSSDVGGYNYVSWYQQHPGKAPKFMIYDVSKRPSGVSNRFSGSKSGNTASLTISGVQAEDEADYYCSSYTSASTVIFGGGTKLTVL
notes: Human scFv from a naive phage library, secreted from E. coli and purified through its His tag; also called clone LU30; LU30 scFv fragment; not shown: scFv linker between the domains, domain order, and the His tag
B1 was tested, and the Kd was 13 nM, the koff was 0.0045 s⁻¹ and the kon was 340000 M⁻¹ s⁻¹.
